Data as given in patent US20140348747A1 (PROMEGA, published 2014).

What was measured:
NLpoly 11S (12-A51T) [1] = target: T1, NLpoly 11S (12-A51T); assay: luminescence complementation titration of synthetic NLpep on NLpoly E. coli lysate; one site-specific binding fit
T1 construct: E. coli clarified lysate; also called 12S-51
T1 chain: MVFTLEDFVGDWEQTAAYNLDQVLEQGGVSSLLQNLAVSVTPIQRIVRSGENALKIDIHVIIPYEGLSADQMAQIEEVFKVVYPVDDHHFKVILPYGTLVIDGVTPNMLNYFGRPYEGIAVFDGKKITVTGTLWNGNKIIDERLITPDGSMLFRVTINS

NLpoly 11S (12-A51T) [2] = target: T1, NLpoly 11S (12-A51T); assay: luminescence complementation titration; one site-specific binding fit

| Binder | Kd (NLpoly 11S (12-A51T) [1]) [nM] | fold improved affinity over NLpolyWT:NLpepWT (NLpoly 11S (12-A51T) [2]) [fold] |
| --- | --- | --- |
| Ac-VSGWRLFKKIS-NH2 (synthetic peptide) [NLpep86] | < 1 | 10000 |
| Ac-VSGWRLFKKISN-NH2 (synthetic peptide) [NLpep80] | < 1 | 10000 |
